For assay [1], the target named is T1, human VEGF165 (human, UniProt P15692-4 27-191). Description: solution binding: human VEGF incubated 1 h at 37 C with dilutions of binder, free VEGF measured by ELISA kit. On the technique in general: ELISA stands for enzyme-linked immunosorbent assay.
The target of assay [2] is T1, human VEGF165. Put plainly: binding assay on purified fusion protein (quality testing).
Assay [3] concerns the target T1, human VEGF165. Put plainly: comparison of affinity for VEGF, reference Avastin.

Data on two molecules can be found in patent publication US20100272719A1 (CHENGDU KANGHONG BIOTECHNOLOGIES, published 2010).

T1 sequence (P15692 other isoform, or with tags, fused parts or gaps limits assumed): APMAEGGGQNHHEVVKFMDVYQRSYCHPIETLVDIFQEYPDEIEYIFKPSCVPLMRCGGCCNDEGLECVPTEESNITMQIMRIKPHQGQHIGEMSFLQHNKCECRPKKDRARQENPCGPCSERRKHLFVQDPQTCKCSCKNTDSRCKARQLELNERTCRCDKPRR

B1: VEGF-TRAP (FP1′, FLTd2KDRd3-Fc) (Fc fusion, UniProt P17948 129-230, looked up)
chain: SDTGRPFVEMYSEIPEIIHMTEGRELVIPCRVTSPNITVTLKKFPLDTLIPDGKRIIWDSRKGFIISNATYKEIGLLTCEATVNGHLYKTNYLTHRQTNTIIDVVLSPSHGIELSVGEKLVLNCTARTELNVGIDFNWEYPSSKHQHKKLVNRDLKTQSGSEMKKFLSTLTIDGVTRSDQGLYTCAASSGLMTKKNSTFVRVHEK
notes: domain: 2nd Ig-like domain of FLT-1;domain: 3rd Ig-like domain of KDR; also called VEGF Trap (R1R2); not shown: human immunoglobulin Fc (IgFc)
On to B1, for which the IC50 (as a rule, the concentration that gives 50% inhibition) in the assay with human VEGF165 [1] was 0.03 nM.

B2: FP3′ (FLTd2-KDRd3-KDRd4-Fc chimeric fusion protein) (Fc fusion)
chain: GRPFVEMYSEIPEIIHMTEGRELVIPCRVTSPNITVTLKKFPLDTLIPDGKRIIWDSRKGFIISNATYKEIGLLTCEATVNGHLYKTNYLTHRQTNTIIDVVLSPSHGIELSVGEKLVLNCTARTELNVGIDFNWEYPSSKHQHKKLVNRDLKTQSGSEMKKFLSTLTIDGVTRSDQGLYTCAASSGLMTKKNSTFVRVHEKPFVAFGSGMESLVEATVGERVRIPAKYLGYPPPEIKWYKNGIPLESNHTIKAGHVLTIMEVSERDTGNYTVILTNPISKEKQSHVVSLVVYVPP
On to B2, for which the IC50 was not above 0.05 nM with human VEGF165 [2] and 0.01 nM in the assay with human VEGF165 [1]. Further, in the assay with human VEGF165 [3], the “fold affinity against Avastin” value was 50 fold.
